Values quoted from earlier work, collected in paper PMC4536614.

Target: C3d C3d (Homo sapiens) (UniProt P01024)
Sequence (P01024 1002-1303): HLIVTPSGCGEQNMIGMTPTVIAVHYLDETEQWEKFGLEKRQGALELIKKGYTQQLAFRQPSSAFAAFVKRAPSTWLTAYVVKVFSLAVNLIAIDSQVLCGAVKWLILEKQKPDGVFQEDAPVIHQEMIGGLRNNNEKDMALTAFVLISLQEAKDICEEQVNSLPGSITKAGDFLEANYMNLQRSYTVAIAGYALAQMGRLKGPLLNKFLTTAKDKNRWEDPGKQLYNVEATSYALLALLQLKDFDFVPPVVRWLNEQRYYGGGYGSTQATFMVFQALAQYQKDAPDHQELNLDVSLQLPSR

Sequence of complement receptor 2 (CR2) (P20023 21-971): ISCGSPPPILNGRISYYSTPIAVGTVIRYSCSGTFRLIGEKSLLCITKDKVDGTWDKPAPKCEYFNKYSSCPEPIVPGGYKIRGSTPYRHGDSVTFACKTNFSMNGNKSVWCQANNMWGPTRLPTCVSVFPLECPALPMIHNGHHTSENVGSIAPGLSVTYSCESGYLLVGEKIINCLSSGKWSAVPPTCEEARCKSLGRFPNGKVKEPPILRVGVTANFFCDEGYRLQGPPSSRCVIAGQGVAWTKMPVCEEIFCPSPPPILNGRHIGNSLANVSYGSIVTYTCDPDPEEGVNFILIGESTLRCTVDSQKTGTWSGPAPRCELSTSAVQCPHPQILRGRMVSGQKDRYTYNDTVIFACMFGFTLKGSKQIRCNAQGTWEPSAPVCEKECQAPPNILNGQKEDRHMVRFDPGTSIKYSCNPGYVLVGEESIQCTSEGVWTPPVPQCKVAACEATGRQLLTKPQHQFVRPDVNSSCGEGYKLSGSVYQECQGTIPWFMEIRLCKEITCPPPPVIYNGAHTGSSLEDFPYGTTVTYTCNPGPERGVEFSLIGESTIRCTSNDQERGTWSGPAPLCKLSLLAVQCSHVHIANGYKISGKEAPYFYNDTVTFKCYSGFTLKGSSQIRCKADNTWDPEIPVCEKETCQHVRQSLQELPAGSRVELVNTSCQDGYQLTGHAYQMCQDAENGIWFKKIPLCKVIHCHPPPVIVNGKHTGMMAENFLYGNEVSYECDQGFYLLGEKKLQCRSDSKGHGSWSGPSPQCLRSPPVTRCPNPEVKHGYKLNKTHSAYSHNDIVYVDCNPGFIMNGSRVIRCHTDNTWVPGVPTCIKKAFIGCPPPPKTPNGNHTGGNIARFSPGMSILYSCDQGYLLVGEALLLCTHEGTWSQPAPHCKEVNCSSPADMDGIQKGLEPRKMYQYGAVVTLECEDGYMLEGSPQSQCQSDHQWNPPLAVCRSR

## complement receptor 2 (CR2) (from UniProt P20023)
  Kd: 500 nM
